Among the data in US20110243928A1 are absorbance values, retold here.

One assay addresses T1, 16 mer peptide 40.
T1 sequence (peptide, N-terminal biotin; C-terminal amide): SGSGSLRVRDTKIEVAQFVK
Briefly: 16 mer peptide ELISA.

A further assay addresses 16 mer peptide 41. Briefly: 16 mer peptide ELISA.

16 mer peptide 41, sequence (peptide, as listed by the source limits assumed): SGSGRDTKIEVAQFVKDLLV

B1: monoclonal antibody 6A1 (antibody, IgG1, V domains shown)
VH: EIQLQQSVAELVRPGASVRLSCTASGFYIKDTYMHWVIQRPEQGLEWIGTIDPANGNTKYVPKFQGKATITADTSSNTAYLRLSSLTSEDTAIYYCARSIYDDYHYDDYYAMDYWGQGTSVTVSS
VL: DVLMTQTPLSLPVSLGDQASISCRSSQNIVHINGNTYLEWYLQKPGQSPKLLIYKISDRFSGVPDRFSGSGSGTDFTLKISRVEAEDLGVYYCFQGSHVPWTFGGGTKLEIK
As to B1, the figures for the absorbance at 490 nm with 16 mer peptide 40 and in the assay with 16 mer peptide 41 were 0.06 A490 and 0.058 A490, respectively.
